Laboratory results reported in paper PMC5651683 (The Biochemical journal, 2017).

Target: His6-Munc18a (rat, UniProt P61765 1-594)
Test: pull-down

His6-Munc18a, sequence (P61765 whole entry): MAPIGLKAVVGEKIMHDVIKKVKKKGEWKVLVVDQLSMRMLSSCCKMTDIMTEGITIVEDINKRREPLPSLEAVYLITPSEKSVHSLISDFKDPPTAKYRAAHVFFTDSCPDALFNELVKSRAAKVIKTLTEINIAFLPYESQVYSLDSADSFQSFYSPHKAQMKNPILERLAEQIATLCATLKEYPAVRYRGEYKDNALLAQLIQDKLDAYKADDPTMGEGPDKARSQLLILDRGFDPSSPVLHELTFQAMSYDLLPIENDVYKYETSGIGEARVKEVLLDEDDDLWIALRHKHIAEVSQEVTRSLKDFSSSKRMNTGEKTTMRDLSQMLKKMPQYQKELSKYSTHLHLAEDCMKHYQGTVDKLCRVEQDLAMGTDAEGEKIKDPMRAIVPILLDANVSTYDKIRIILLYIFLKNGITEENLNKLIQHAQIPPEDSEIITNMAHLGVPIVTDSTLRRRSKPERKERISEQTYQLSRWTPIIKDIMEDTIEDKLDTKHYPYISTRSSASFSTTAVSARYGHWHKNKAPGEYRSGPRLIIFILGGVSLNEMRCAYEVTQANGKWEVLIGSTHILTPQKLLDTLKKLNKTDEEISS

- binding result: binds
B1: syntaxin3, full-length, liposome-anchored (natural protein, rat, UniProt Q08849 1-289, looked up)
chain: MKDRLEQLKAKQLTQDDDTDEVEIAIDNTAFMDEFFSEIEETRLNIDKISEHVEEAKKLYSIILSAPIPEPKTKDDLEQLTTEIKKRANNVRNKLKSMEKHIEEDEVRSSADLRIRKSQHSVLSRKFVEVMTKYNEAQVDFRERSKGRIQRQLEITGKKTTDEELEEMLESGNPAIFTSGIIDSQISKQALSEIEGRHKDIVRLESSIKELHDMFMDIAMLVENQGEMLDNIELNVMHTVDHVEKARDETKRAMKYQGQARKKLIIIIVIVVVLLGILALIIGLSVGLK
